Publication PMC9815098 (Acta Crystallographica. Section D, Structural Biology, 2023)

Biological target: the molecule itself
Assay: SEC-MALS; RBP-CPN at 0.5, 1.0 and 5 mg ml^-1; Superdex 75 Increase 10/300 GL; 10 mM sodium phosphate pH 7.8, 50 mM sodium chloride, 0.02% sodium azide; room temperature; monomer to dimer

B1: RBP-CPN (permuted N-terminal lobe of the ribose-binding protein from Thermotoga maritima) (domain or fragment)
chain: MKGKMAIVISTLNNPWFVVLAETAKQRAEQLGYEATIFDSQNDTAKESAHFDAIIAAGYDAIIFNPTDADGSIANVKRAKEAGIPVFCVDRGINARGLAVAQIYSDTSTQFPKLMARLAVEWADQYLRGG
notes: residue printed between position 263 and the HHHHHH tag; source: E. coli BL21 (DE3), purified (IMAC, SEC)
- stoichiometry N: 2
